Patent US20220406376A1 (MacroGenics, published 2022)

Assays:
[1] = target: T1, HER2/neu on the surface of target cells (N87, JIMT-1, MCF-7, MDA-MB231) (UniProt P04626 23-1255, limits assumed); experiment: flow cytometry on N87 cells, anti-hFc APC MFI
T1 construct: whole, on cells

[2] = target: T1, HER2/neu on the surface of target cells …; experiment: flow cytometry on MCF-7 cells, anti-hFc APC MFI
[3] = target: T1, HER2/neu on the surface of target cells …; experiment: flow cytometry on JIMT-1 cells, anti-hFc APC MFI
[4] = target: T2, CD137 on the surface of cells (activated human T cells; engineered CHO cells) (human, UniProt Q07011 24-255); experiment: flow cytometry on activated pan T cells (donor D46433, CD8 PE), anti-hFc APC MFI
T2 construct: whole, on cells; also called human CD137; cell surface expressed CD137
T2 sequence (Q07011 24-255, change not shown): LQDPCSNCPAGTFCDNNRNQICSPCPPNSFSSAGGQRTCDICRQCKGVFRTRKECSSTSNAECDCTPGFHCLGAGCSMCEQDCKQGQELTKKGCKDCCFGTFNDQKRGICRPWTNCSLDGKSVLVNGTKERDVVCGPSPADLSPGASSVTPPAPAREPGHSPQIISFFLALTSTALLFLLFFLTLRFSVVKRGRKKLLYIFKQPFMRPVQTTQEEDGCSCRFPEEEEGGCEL

| Binder | EC50 (read off the curve) [1] [nM] | EC50 (read off the curve) [2] [nM] | EC50 (read off the curve) [3] [nM] | EC50 (read off the curve) [4] [nM] |
| --- | --- | --- | --- | --- |
| TRIDENT-A (bispecific antibody, human IgG1, kappa, L234A L235A) chain 1: DIQMTQSPSSLSASVGDRVTITCRPSQDISNYLNWYQQKPDKTVKLLIYYTSRLRSGVPSRFSGSGSGTDFTFTISSLQPEDIATYFCQQGDTLPYTFGQGTKLEIKGGGSGGGGQVQLVQSGAEVKKPGASVKVSCKASGYTFTSYWINWVKQAPGQGLEWIGNIYPSDSYTNYNQKFKDKATITADKSTSTAYMELSSLRSEDTAVYYCTRDYGSSYSFDYWGQGTTVTVSSASTKGEVAACEKEVAALEKEVAALEKEVAALEKGGGDKTHTCPPCPAPEAAGGPSVFLFPPKPKDTLMISRTPEVTCVVVDVSHEDPEVKFNWYVDGVEVHNAKTKPREEQYNSTYRVVSVLTVLHQDWLNGKEYKCKVSNKALPAPIEKTISKAKGQPREPQVYTLPPSREEMTKNQVSLWCLVKGFYPSDIAVEWESNGQPENNYKTTPPVLDSDGSFFLYSKLTVDKSRWQQGNVFSCSVMHEALHNHYTQKSLSLSPGK chain 2: DIQMTQSPSSLSASVGDRVTITCRPSQDISNYLNWYQQKPDKTVKLLIYYTSRLRSGVPSRFSGSGSGTDFTFTISSLQPEDIATYFCQQGDTLPYTFGQGTKLEIKGGGSGGGGQVQLVQSGAEVKKPGASVKVSCKASGYTFTSYWINWVKQAPGQGLEWIGNIYPSDSYTNYNQKFKDKATITADKSTSTAYMELSSLRSEDTAVYYCTRDYGSSYSFDYWGQGTTVTVSSASTKGKVAACKEKVAALKEKVAALKEKVAALKE heavy: QVQLVQSGAEVKKPGASVKVSCKASGYTFTNYGMNWVRQAPGQGLEWMGWINTNIGEPTYTEEFKGRVTMTRDTSISTAYMELSRLRSDDTAVYYCARDDGYGNRVSYWGQGTLVTVSSASTKGPSVFPLAPSSKSTSGGTAALGCLVKDYFPEPVTVSWNSGALTSGVHTFPAVLQSSGLYSLSSVVTVPSSSLGTQTYICNVNHKPSNTKVDKRVEPKSCDKTHTCPPCPAPEAAGGPSVFLFPPKPKDTLMISRTPEVTCVVVDVSHEDPEVKFNWYVDGVEVHNAKTKPREEQYNSTYRVVSVLTVLHQDWLNGKEYKCKVSNKALPAPIEKTISKAKGQPREPQVYTLPPSREEMTKNQVSLSCAVKGFYPSDIAVEWESNGQPENNYKTTPPVLDSDGSFFLVSKLTVDKSRWQQGNVFSCSVMHEALHNRYTQKSLSLSPGK light: DIQMTQSPSSLSASVGDRVTITCKASQDISNYLSWFQQKPGKAPKTLIYRANRLQSGVPSRFSGSGSGTDFTLTISSLQPEDFATYYCLQHDEFPWTFGQGTKLEIKRTVAAPSVFIFPPSDEQLKSGTASVVCLLNNFYPREAKVQWKVDNALQSGNSQESVTEQDSKDSTYSLSSTLTLSKADYEKHKVYACEVTHQGLSSPVTKSFNRGEC | ~1 | ~0.2 | ~0.9 | ~0.06 |
| TRIDENT-A4 (bispecific antibody, human IgG1, kappa, L234A L235A) chain 1: DIQMTQSPSSLSASVGDRVTITCRPSQDISNYLNWYQQKPDKTVKLLIYYTSRLRSGVPSRFSGSGSGTDFTFTISSLQPEDIATYFCQQGDTLPYTFGQGTKLEIKGGGSGGGGQVQLVQSGAEVKKPGASVKVSCKASGYTFTSYWINWVKQAPGQGLEWIGNIYPSDSYTNYNQKFKDKATITADKSTSTAYMELSSLRSEDTAVYYCTRDYGSSYSYNVWGQGTTVTVSSASTKGEVAACEKEVAALEKEVAALEKEVAALEKGGGDKTHTCPPCPAPEAAGGPSVFLFPPKPKDTLMISRTPEVTCVVVDVSHEDPEVKFNWYVDGVEVHNAKTKPREEQYNSTYRVVSVLTVLHQDWLNGKEYKCKVSNKALPAPIEKTISKAKGQPREPQVYTLPPSREEMTKNQVSLWCLVKGFYPSDIAVEWESNGQPENNYKTTPPVLDSDGSFFLYSKLTVDKSRWQQGNVFSCSVMHEALHNHYTQKSLSLSPGK chain 2: DIQMTQSPSSLSASVGDRVTITCRPSQDISNYLNWYQQKPDKTVKLLIYYTSRLRSGVPSRFSGSGSGTDFTFTISSLQPEDIATYFCQQGDTLPYTFGQGTKLEIKGGGSGGGGQVQLVQSGAEVKKPGASVKVSCKASGYTFTSYWINWVKQAPGQGLEWIGNIYPSDSYTNYNQKFKDKATITADKSTSTAYMELSSLRSEDTAVYYCTRDYGSSYSYNVWGQGTTVTVSSASTKGKVAACKEKVAALKEKVAALKEKVAALKE heavy: QVQLVQSGAEVKKPGASVKVSCKASGYTFTNYGMNWVRQAPGQGLEWMGWINTNIGEPTYTEEFKGRVTMTRDTSISTAYMELSRLRSDDTAVYYCARDDGYGNRVSYWGQGTLVTVSSASTKGPSVFPLAPSSKSTSGGTAALGCLVKDYFPEPVTVSWNSGALTSGVHTFPAVLQSSGLYSLSSVVTVPSSSLGTQTYICNVNHKPSNTKVDKRVEPKSCDKTHTCPPCPAPEAAGGPSVFLFPPKPKDTLMISRTPEVTCVVVDVSHEDPEVKFNWYVDGVEVHNAKTKPREEQYNSTYRVVSVLTVLHQDWLNGKEYKCKVSNKALPAPIEKTISKAKGQPREPQVYTLPPSREEMTKNQVSLSCAVKGFYPSDIAVEWESNGQPENNYKTTPPVLDSDGSFFLVSKLTVDKSRWQQGNVFSCSVMHEALHNRYTQKSLSLSPGK light: DIQMTQSPSSLSASVGDRVTITCKASQDISNYLSWFQQKPGKAPKTLIYRANRLQSGVPSRFSGSGSGTDFTLTISSLQPEDFATYYCLQHDEFPWTFGQGTKLEIKRTVAAPSVFIFPPSDEQLKSGTASVVCLLNNFYPREAKVQWKVDNALQSGNSQESVTEQDSKDSTYSLSSTLTLSKADYEKHKVYACEVTHQGLSSPVTKSFNRGEC | ~1 | ~0.2 | ~0.7 | ~0.05 |
| TRIDENT-A2 (bispecific antibody, human IgG1, kappa, L234A L235A) chain 1: DIQMTQSPSSLSASVGDRVTITCRPSQDISNYLNWYQQKPDKTVKLLIYYTSRLRSGVPSRFSGSGSGTDFTFTISSLQPEDIATYFCQQGDTLPYTFGQGTKLEIKGGGSGGGGQVQLVQSGAEVKKPGASVKVSCKASGYTFTSYWINWVKQAPGQGLEWIGNIYPSDSYTNYNQKFKDKATITADKSTSTAYMELSSLRSEDTAVYYCTRDYGSAYSMSTWGQGTTVTVSSASTKGEVAACEKEVAALEKEVAALEKEVAALEKGGGDKTHTCPPCPAPEAAGGPSVFLFPPKPKDTLMISRTPEVTCVVVDVSHEDPEVKFNWYVDGVEVHNAKTKPREEQYNSTYRVVSVLTVLHQDWLNGKEYKCKVSNKALPAPIEKTISKAKGQPREPQVYTLPPSREEMTKNQVSLWCLVKGFYPSDIAVEWESNGQPENNYKTTPPVLDSDGSFFLYSKLTVDKSRWQQGNVFSCSVMHEALHNHYTQKSLSLSPGK chain 2: DIQMTQSPSSLSASVGDRVTITCRPSQDISNYLNWYQQKPDKTVKLLIYYTSRLRSGVPSRFSGSGSGTDFTFTISSLQPEDIATYFCQQGDTLPYTFGQGTKLEIKGGGSGGGGQVQLVQSGAEVKKPGASVKVSCKASGYTFTSYWINWVKQAPGQGLEWIGNIYPSDSYTNYNQKFKDKATITADKSTSTAYMELSSLRSEDTAVYYCTRDYGSAYSMSTWGQGTTVTVSSASTKGKVAACKEKVAALKEKVAALKEKVAALKE heavy: QVQLVQSGAEVKKPGASVKVSCKASGYTFTNYGMNWVRQAPGQGLEWMGWINTNIGEPTYTEEFKGRVTMTRDTSISTAYMELSRLRSDDTAVYYCARDDGYGNRVSYWGQGTLVTVSSASTKGPSVFPLAPSSKSTSGGTAALGCLVKDYFPEPVTVSWNSGALTSGVHTFPAVLQSSGLYSLSSVVTVPSSSLGTQTYICNVNHKPSNTKVDKRVEPKSCDKTHTCPPCPAPEAAGGPSVFLFPPKPKDTLMISRTPEVTCVVVDVSHEDPEVKFNWYVDGVEVHNAKTKPREEQYNSTYRVVSVLTVLHQDWLNGKEYKCKVSNKALPAPIEKTISKAKGQPREPQVYTLPPSREEMTKNQVSLSCAVKGFYPSDIAVEWESNGQPENNYKTTPPVLDSDGSFFLVSKLTVDKSRWQQGNVFSCSVMHEALHNRYTQKSLSLSPGK light: DIQMTQSPSSLSASVGDRVTITCKASQDISNYLSWFQQKPGKAPKTLIYRANRLQSGVPSRFSGSGSGTDFTLTISSLQPEDFATYYCLQHDEFPWTFGQGTKLEIKRTVAAPSVFIFPPSDEQLKSGTASVVCLLNNFYPREAKVQWKVDNALQSGNSQESVTEQDSKDSTYSLSSTLTLSKADYEKHKVYACEVTHQGLSSPVTKSFNRGEC | ~1 | ~0.2 | ~0.7 | ~0.04 |
